Measurements published in PMC6547439.
Where a chain is given by its changes, count along the chain named. Where two headings read alike, the source gives them in different places.

Experiments:
[1] = target: T1, human Argonaute-2 loaded with miR-122 (hAgo2:miR-122) (Homo sapiens, UniProt Q9UKV8 1-859); test: EMSA
[2] = target: T1, human Argonaute-2 loaded with miR-122 …; test: EMSA; remark: listed apart in the source

T1 sequence (Q9UKV8 whole entry): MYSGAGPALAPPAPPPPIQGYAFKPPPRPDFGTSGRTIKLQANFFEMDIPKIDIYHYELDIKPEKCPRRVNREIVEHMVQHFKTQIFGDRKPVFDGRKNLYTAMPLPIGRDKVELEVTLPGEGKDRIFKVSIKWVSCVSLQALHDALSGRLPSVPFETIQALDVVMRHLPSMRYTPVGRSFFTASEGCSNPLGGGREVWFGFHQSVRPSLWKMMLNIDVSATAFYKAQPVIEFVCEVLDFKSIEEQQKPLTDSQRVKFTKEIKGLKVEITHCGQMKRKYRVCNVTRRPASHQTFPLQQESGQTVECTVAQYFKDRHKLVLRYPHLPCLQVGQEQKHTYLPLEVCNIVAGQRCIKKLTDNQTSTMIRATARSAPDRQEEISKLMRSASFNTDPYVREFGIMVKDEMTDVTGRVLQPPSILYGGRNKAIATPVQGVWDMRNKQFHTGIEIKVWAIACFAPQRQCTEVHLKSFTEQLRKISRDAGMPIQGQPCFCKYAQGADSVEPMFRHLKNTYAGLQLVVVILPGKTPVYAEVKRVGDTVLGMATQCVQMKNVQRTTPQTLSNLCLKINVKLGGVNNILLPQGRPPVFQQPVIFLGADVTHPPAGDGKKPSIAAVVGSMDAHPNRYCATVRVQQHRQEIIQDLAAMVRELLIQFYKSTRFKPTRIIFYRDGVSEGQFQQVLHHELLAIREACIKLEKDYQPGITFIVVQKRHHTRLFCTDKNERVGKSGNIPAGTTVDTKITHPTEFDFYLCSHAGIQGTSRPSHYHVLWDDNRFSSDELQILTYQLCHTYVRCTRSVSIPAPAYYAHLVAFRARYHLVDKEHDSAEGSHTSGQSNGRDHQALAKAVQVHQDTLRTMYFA

B1: miR-122 guide / HCV S2p3,4 1-42 target (mixed)
RNA 1: UGGAGUGUGACAAUGGUGUUUGU
RNA 2: ACCUGCCCCUAAUAGGGGCGACACUCCGCCAUGAAUCACAGC
modifications: 5'-phosphate on miR-122 guide
- Kd [1]: 63 ± 10 pM

B2: miR-122 guide / HCV 1-42 WT target (mixed)
RNA 1: UGGAGUGUGACAAUGGUGUUUGU
RNA 2: B1 RNA 2 with A40U, G41C
modifications: 5'-phosphate on miR-122 guide
- Kd [2]: 250 ± 31 pM
